84 variants from the RNAGym collection of RNA variant scans (doi:10.1021/acssynbio.7b00057) can be followed below.

Sequences and labels used below:
B1: Pistol ribozyme (parent)
chain: GGGUCGUUGUUCCAUAAUCGCGUGGAUAUGGCACGCAAGUUUCUACCGGGCACCGUAAAUGUCCGACUGGAGCCGUUCGGGCGGCUAUAAACAGACCUCAGGCCCGAAGCGUGGCGGCACCUGCCGCCGGUGGUAAAAAAGAUCGGAAGAGCACACGUCU

In the data set the parent is B1. Nature of the data set: aptazyme ON/OFF ratio, guanine; higher = stronger switching; co-transcriptional cleavage with and without guanine.
Take U7G U8A G9A U10A U11A C12G C13G: the “aptazyme ON/OFF ratio” value is 1.15.

Take U7G U8A G9C U10A U11C C12G C13G: the “aptazyme ON/OFF ratio” value is 1.04.

Regarding U7G U8A G9C U10A U11C C12G C13U, the “aptazyme ON/OFF ratio” value was found to be 1.04. Under U7G U8A G9C U10A U11C C12G C13A stands 1.04; under U7G U8A G9C U10C U11C C12A, 1.04; under U7G U8A G9C U10A U11G C12U C13A, 1.02. With U7G U8A G9C U10A U11G C12U C13U, the “aptazyme ON/OFF ratio” value turned out to be 1.04. Next, U7G U8A G9C U10A U11G C12U C13G: 1.01. Under U7G U8A G9A U10C U11C C12A C13G stands 1.25; under U7G U8A G9A U10C U11C C12A C13A, 1.07. Under U7G U8A G9A U10C U11C C12A C13U stands 1.08; under U7G U8A G9A U11A C13U, 1.12. Consider U7G U8A G9A U11A C13G, for which the “aptazyme ON/OFF ratio” value was 1.02. Under U7G U8A G9A U11A C13A stands 1.06; under U7G U8A G9A U10A U11G C12G, 1.2. Next, U7G U8A G9A U10A U11G C12A: 1.06; U7G U8A G9A U10A U11G C12U: 1.65; U7G U8A G9A U10G U11C C12A C13A: 1.1. Next, U7G U8A G9A U10G U11C C12A C13U: 1.14; U7G U8A G9A U10G U11C C12A C13G: 1.09. As for U7G U8A G9C U10C U11C C12A C13A, the “aptazyme ON/OFF ratio” value was 1.05.

U7G U8A G9A U10C U11C C12U C13A: the “aptazyme ON/OFF ratio” value was 1.08. On to U7G U8A G9A U10C U11C C12U C13G, for which the “aptazyme ON/OFF ratio” value worked out at 1.02.

Regarding U7G U8A G9A U10C U11C C12U C13U, the “aptazyme ON/OFF ratio” value is 1.03.

With U7G U8A G9A U10C U11A C12G C13A, the “aptazyme ON/OFF ratio” value stood at 1.11. Next, U7G U8A G9A U10C U11A C12G C13G: 1.07; U7G U8A G9A U10C U11A C12G C13U: 1.12. Consider U7G U8A G9A U11G C12A C13G, for which the “aptazyme ON/OFF ratio” value was 1.13. Under U7G U8A G9A U11G C12A C13U stands 1.23; under U7G U8A G9A U11G C12A C13A, 1.05. With U7G U8A G9C U10A U11A C12A C13U, the “aptazyme ON/OFF ratio” value is 1.02.

As for U7G U8A G9C U10A U11A C12A C13A, the “aptazyme ON/OFF ratio” value turned out to be 1.04.

For the variant U7G U8A G9C U10A U11A C12A C13G, the “aptazyme ON/OFF ratio” value was 1.03. Under U7G U8A G9A U10C C13A stands 1.09; under U7G U8A G9A U10C C13U, 1.13.

Consider U7G U8A G9A U10C C13G, for which the “aptazyme ON/OFF ratio” value was determined as 1.07. Next, U7G U8A G9A U10A U11C C13A: 1.1. Consider U7G U8A G9A U10A U11C C13U, for which the “aptazyme ON/OFF ratio” value is 1.05. Under U7G U8A G9A U10A U11C C13G stands 1.08.

Turning to U7G U8A G9A U10C U11G C12U, the “aptazyme ON/OFF ratio” value was 1.28.

Regarding U7G U8A G9A U10C U11G C12G, the “aptazyme ON/OFF ratio” value is 1.32. Under U7G U8A G9A U10C U11G C12A stands 1.04. As for U7G U8A G9A U11C C12G, the “aptazyme ON/OFF ratio” value is 1.21. Under U7G U8A G9A U11C C12A stands 1.17; under U7G U8A G9A U11C C12U, 1.18.

As to U7G U8A G9C U10C U11A C12A C13G, the “aptazyme ON/OFF ratio” value was 1.02. Regarding U7G U8A G9C U10C U11A C12A C13A, the “aptazyme ON/OFF ratio” value stood at 1.01. Next, U7G U8A G9C U10C U11A C12A C13U: 1.03. Under U7G U8A G9A U10C U11C stands 1.06; under U7G U8A G9A U10C U11G, 1.24. Under U7G U8A G9A U10C U11A stands 1.4; under U7G U8A G9A U11A C12G, 1.24; under U7G U8A G9A U11A C12U, 1.25. As for U7G U8A G9A U11A C12A, the “aptazyme ON/OFF ratio” value came out at 1.27.

Consider U7G U8A G9A U10A U11A C13U, for which the “aptazyme ON/OFF ratio” value worked out at 1.23. Under U7G U8A G9A U10A U11A C13G stands 1.06. Next, U7G U8A G9A U10A U11A C13A: 1.09. Take U7G U8A G9A U10C U11G C12G C13U: the “aptazyme ON/OFF ratio” value turned out to be 1.08. Next, U7G U8A G9A U10C U11G C12G C13G: 1.19. With U7G U8A G9A U10C U11G C12G C13A, the “aptazyme ON/OFF ratio” value was found to be 1.2. Under U7G U8A G9C C12A C13U stands 0.986; under U7G U8A G9C C12A C13G, 1.03.

Regarding U7G U8A G9C C12A C13A, the “aptazyme ON/OFF ratio” value is 1.04.

For the variant U7G U8A G9A U10C C12A C13A, the “aptazyme ON/OFF ratio” value was 1.07. Under U7G U8A G9A U10C C12A C13G stands 1.06; under U7G U8A G9A U10C C12A C13U, 1.08. Next, U7G U8A G9A U10A U11C C12G C13A: 1.11; U7G U8A G9A U10A U11C C12G C13G: 1.05. Under U7G U8A G9A U10A U11C C12G C13U stands 1.1. In the case of U7G U8A G9A U10A U11G C12U C13G, the “aptazyme ON/OFF ratio” value was determined as 1.24. As to U7G U8A G9A U10A U11G C12U C13U, the “aptazyme ON/OFF ratio” value was found to be 1.15. Under U7G U8A G9A U10A U11G C12U C13A stands 1.07; under U7G U8A G9C C13U, 1.04; under U7G U8A G9C C13A, 1.04. With U7G U8A G9C C13G, the “aptazyme ON/OFF ratio” value worked out at 1.02.

On to U7G U8A G9C U10A U11C C12A, for which the “aptazyme ON/OFF ratio” value worked out at 1.05.

U7G U8A G9C U10A U11C C12G: the “aptazyme ON/OFF ratio” value was found to be 1.05. On to U7G U8A G9C U10A U11C C12U, for which the “aptazyme ON/OFF ratio” value was 1.04. For U7G U8A G9A U10G U11A C12A C13U, the “aptazyme ON/OFF ratio” value amounted to 1.07. In the case of U7G U8A G9A U10G U11A C12A C13A, the “aptazyme ON/OFF ratio” value stood at 1.04.

For U7G U8A G9A U10G U11A C12A C13G, the “aptazyme ON/OFF ratio” value stood at 1.16. Next, U7G U8A G9A U10G U11A C12U C13U: 1.09. Next, U7G U8A G9A U10G U11A C12U C13A: 1.18; U7G U8A G9A U10G U11A C12U C13G: 1.06.
